These results are taken from the nanobody polyreactivity screen of Harvey et al. (2022).

The series in a line: yeast display, Sf9 membrane polyspecificity reagent, FACS + sequencing; frameworks hold sequencing errors. An outline of the steps: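 Nanobodies from a synthetic yeast display library (Saccharomyces cerevisiae BJ5465), induced 36–48 hours with galactose, were stained 1 hour at 4 °C with 10% biotinylated, detergent-solubilized Sf9 membrane reagent, enriched on streptavidin microbeads, then FACS-sorted. Anti-HA (expression) and streptavidin (reagent binding) fluorescence set low and high (top ~1%) gates. Polyreactivity labels come from the gate of origin. Genes were colony-PCR amplified, MiSeq 2 × 250 sequenced and filtered by CDR length.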
With “QVQLVESGGGVVQAGGSLRLSCAASGFIISYNVMVWYRQAPGKERELVAAISSSGGSTYYADSVKGRFTISRDNAKNTVYLQMNSLKPEDTAVYYCATRVSRSFRAYDYWGQRTQVTVSS”, the “polyreactivity (PSR sort gate)” value is “high polyreactivity”.

Turning to “QVQLVESGGGVVQAGGSLRLSCAASGFILRAYAMGWYRQAPGKERELVAAITSATSTNYADSVKGRFTISRDNAKNTVYLQMNSLKPEDTAVYYCAADGGGGEFSYDSWGQGTQVTVSS”, the “polyreactivity (PSR sort gate)” value is recorded as “low polyreactivity”.

For “QVQLVESGGGVVQAGGSLRLSCAASGLIFAYAMGWYSPAPGKERELVAVISWSGGSTYYADSVKGRFTISRDNAKNTVYLQMNSLKPEDTAVYYCAADYFGNWQLAGGYWGQGTQVTVSS”, the “polyreactivity (PSR sort gate)” value was “low polyreactivity”.

For the sequence “QVQLVESGGGVVQAGGSLRLSCAASGRIFKSYAMGWYRPAPGKERELVASISYTGGSTYYAASVKGRFTISRDNAKNTVYLQMNRLKPEDTAVYDCAAKRVRSAGSYGYWGQGTQVTVSS”, the “polyreactivity (PSR sort gate)” value is on record as “low polyreactivity”.

With “QVQLVESGGGVVQAGGSLRLSCAASGRIFRYYTMGWYRQAPGKERELVASITGSGTSTYYADSVKGRFTISRDNAKNTVYLQMNSLKPEDNAVYYCNARGFRVASHAAWYQYDYWGQGTQVTVSS”, the “polyreactivity (PSR sort gate)” value is “high polyreactivity”.

“QVQLVESGGGVVQAGGSLRLSCAASGRTFPYYTMGWYRQAPGKERELVAAITRSGDSTYYADSVKGRFTISRDNAKNTVYLQMYSLKPEDTAVYYCAADIWSSDYEEFYYWGLGTQVTVSS”: the “polyreactivity (PSR sort gate)” value is listed as “low polyreactivity”.

Consider “QVQLVESGGGVVQAGGSLRLSCAASGRTYGYNAMGWYRPAPGTERELVAAITKSGVSTYYADSVKGRFTISRDNAKNTVYLQMNSLKPEDTAVYYCAVDSYYYSMDYWGQGTQVTVSS”, for which the “polyreactivity (PSR sort gate)” value is on record as “high polyreactivity”.

Turning to “QVQLVESGGGVVQAGGSLRLSCAASGSIFLGNAMGWYRPAPGKERELVAAITWSGGSTYYADSVKGRFTISRDNAKNTVYLQMNSLKPEDTAVYYCNAYSYVAIRDGGDYWGQGTLVTVSS”, the “polyreactivity (PSR sort gate)” value is listed as “low polyreactivity”.

As to “QVQLVESGGGVVQAGGSLRLSCAASGSIFRYYTRGGYRQAPGKVRELVAAISRSGGSTYYADSVKGRFTISRDNAKNTVYLQMNSLKPEDTAVYYCAARYKRAQGYREGDYWGQGTQVTVSS”, the “polyreactivity (PSR sort gate)” value was “high polyreactivity”.

In the case of “QVQLVESGGGVVQAGGSLRLSCAASGSTFGWYALGWYRQAPGKERELVAAITSGGSTKYADSVKGRFTISRDNAKNTVVLQMNSLKTEDTAVYYCDTVRGYYSPVLVIGYYWGQGTQVTVSS”, the “polyreactivity (PSR sort gate)” value is “high polyreactivity”.

As for “QVQLVESGGGVVQAGGSLRLSCAASGSTFLLYDMGWYRQAPGKERELVARISSGDSTNYADSVKGRFTISRDNAKNTVYLLMNSLIPEDTAVYYCAAEGGVQEFDYWGQGTQVTVSS”, the “polyreactivity (PSR sort gate)” value is “low polyreactivity”.

“QVQLVESGGGVVQAGGSLRLSCAASGSTFLVNAMGWYRQAPGKERELVAAISRSTGSTYYADSVKGRFTISRDNAKNSVYLQMNSLKPEDTAVYYCAVYRHGYGYNYWGQGTQVTVSS”: the “polyreactivity (PSR sort gate)” value is recorded as “high polyreactivity”.

As for “QVQLVESGGGVVQAGGSLRLSCAASGSTFVFYTMGWSRQAPGKEREFVASISGSGGSTYYADSVKGRFTISRDNAKNTVYLQMNSLKPEDTAVYYCAAGYPYYYWTPYYYWGQGTQVTVSS”, the “polyreactivity (PSR sort gate)” value was “high polyreactivity”.

As to “QVQLVESGGGVVQAGGSLRLSCAASGSTFYLTVLGWYRKAPGKERELVAASSSSGGSTYYADSVKGRFTISRDNAKNTVYLQMNSLKPEDTAVYYCNKVSAFPHYSGYAYWGQGTQVPVSS”, the “polyreactivity (PSR sort gate)” value is on record as “low polyreactivity”.

Regarding “QVQLVESGGGVVQAGGSLRLSCAASGSTMGYYAMGWYRPAPGKERELVATITRSGGNTYYADSVKGRFTISRDNAKNTVYLQMNSLKPDDNAVYYCAARRLYGSQRGYWGHGTQVTVSS”, the “polyreactivity (PSR sort gate)” value was “high polyreactivity”.

With “QVQLVESGGGVVQAGGSLRLSCAASGSTSGIYAMGWYRQAPGKERELVAAIDTYGGSTYADSVKGRFTISRDNAKNTVYLQMNSVKPEDTAVYYCAKPFSSNSWSHGYCGQGTQVTVSS”, the “polyreactivity (PSR sort gate)” value is “low polyreactivity”.

“QVQLVESGGGVVQAGGSLRLSCAASGYTFLPYAMGWYRQAPGNARELVAAITVRGGRTYDADAVKGRFTISRHNAKKTVYLQMNSLKPEDTAVYYCHTDAYRLGYDYWGPGTQVTVSS”: the “polyreactivity (PSR sort gate)” value is listed as “high polyreactivity”.

In the case of “QVQLVESGGGVVQAGGSLRLSCAASRRTFTYYDMGWYRQAPGKERELVAGITARGGSTYADSVKGRFTISRDNAKNTVYLQMNSLKPEDTAVYYCAADLYTSLDSTYVYWGQGTQVTLSS”, the “polyreactivity (PSR sort gate)” value is given as “low polyreactivity”.

For the sequence “QVQLVESGGGVVQAGGSLRLSCAATGRTFWRYAMGGYIQAPGKERELVASISVSGGTTYYAYSVKGRFTISRDHAKNTVYLQMNSLKPEDTAVYYCAARYGSIYSILYYRFVYWGQGTQVTVSS”, the “polyreactivity (PSR sort gate)” value was “high polyreactivity”.

On to “QVQLVESGGGVVQAGGSLRLSCAAYRSIFLFKAMGWYRQATGKERELVAAINRDDSTYYADSVKGRFTISRDNAKNTVYLQMNSLKPEDTAVYYCAAPVLHASYGYGYWGQGTQVTVSS”, for which the “polyreactivity (PSR sort gate)” value is recorded as “low polyreactivity”.

For the sequence “QVQLVESGGGVVQAGGSLRLTCAASGIIFYRYSMGWYSQAPGKERELVAAISIGGGSTYYADSVKVRFTISRYNAKNTVYLEMNSLKPEDTAVYYCAADTYNYVGYNGHDYWGQGTQVTVSS”, the “polyreactivity (PSR sort gate)” value was “low polyreactivity”.

“QVQLVESGGGVVQAGGSLRVSCAASGRIFAPYAMGWYRQAPGKERELVAAISWRGSSTYYADSVKGRFTISRDNAKNTVSLQMNSLKPEDTAVYYCAAPSSKYWGQGTQVTVSS”: the “polyreactivity (PSR sort gate)” value was “low polyreactivity”.

Turning to “QVQLVESGGGVVQAGGTLLLICAASGSTFIVNAMVWYRQAPRKERELVAAITGSGGNTYYADSVKGRFTISRDNAKNTVYLQINTLKPEDTAVYYCAAETYYGRIYWYIRDYWGQGTQVSVSS”, the “polyreactivity (PSR sort gate)” value is listed as “low polyreactivity”.

Regarding “QVQLVESGGGVVQAGVSLRLSCAASGFTSHGYAKGWYRQAPGQERELVAAIDSVGSTYYADSVKGRFTISRDNSKNTVYLQMNSLKQEDTAVYYCAARRKRVSFYQEYDYWGQGTQVTVSS”, the “polyreactivity (PSR sort gate)” value is given as “low polyreactivity”.

On to “QVQLVESGGLIVQAGRSIRLTCAASGSIFYSYPMGWYRQAPGKERELVAAIRFSRGTTYYADSVKGRFTISRDNAKNTVYLQMNSLKPEDTAVYYCAATLSSYSYLFEYDYWGQCTQVTVSS”, for which the “polyreactivity (PSR sort gate)” value is given as “low polyreactivity”.

In the case of “QVQLVESGGLLVQAGGSLRLSCAASGFNFYNYAMGWYRQAPGKERELVAAISKRGGRTYYADSVKGRFTISRDNAKITVYLQMNRLKPVDTAVYYCNTDAVRPYHVAWYDYWGQGTQVTVSS”, the “polyreactivity (PSR sort gate)” value is on record as “high polyreactivity”.

“QVQLVESGGLLVQAGGSLRLSCAASGRIFNYNAMGWYRQAPGKERELVAAIDSGGRTNYADSVKARFTISRDNAKNTGYLQMNSLKPEDTAVYYCNREAAHGSLRWTEMEYWGQGTQVTVSS”: the “polyreactivity (PSR sort gate)” value is “low polyreactivity”.

As to “QVQLVESGGLLVQAGGSLRLSCAASGRISPKNAMGWYRQAPGKERELVATIRKIGGRTYYADSVKGRFTISRDNAKNTVYLQMNSLKTEDTAVYYCATDFAPSYYPDRFDYWGQGTQVTVSS”, the “polyreactivity (PSR sort gate)” value was “low polyreactivity”.

Take “QVQLVESGGLLVQAGGSLSLSCAASGRTFTPNAMGWYRQAPGKEREFVAAITYYGGSTRYADSVKGRFTISRDNAKNTVYLQMNSLIPEDTAVYYCAADVHYRYFYSWSSYSGYGYWGQGTQVTVSS”: the “polyreactivity (PSR sort gate)” value is on record as “low polyreactivity”.

Consider “QVQLVESGGRIVQAGGSLRLSCAASGSTFYPYAMGWSRPAPGKEGQFVAAITWSGGSTYADSVKGRFTISRDNAKNTVYLQMNSLKPEDTAVYYCAAQPFVIEGGYRGDYWGQGTQETVSS”, for which the “polyreactivity (PSR sort gate)” value is recorded as “low polyreactivity”.

In the case of “QVQLVESGGRLFQAGGSLRLICAASGSIFVYNTKGWYRQSPGKERELVASISYSGGPTYYADSVKGRFTISRDNAKNTVYLQMKSLNPEDTAVYYCAADVRQRGIYGPGPHYYWGQGTQVTVSS”, the “polyreactivity (PSR sort gate)” value is listed as “high polyreactivity”.

“QVQLVESGGRLVKAGGSLRLSCAASGRNFFYYTMAWYRQAPGKERELVATISWRGGSTYYADSVKGRFTFSRDNAKNTDYLLMNSLKPEETAVYYCAARYRCRYDSWGQGTQVTVSS”: the “polyreactivity (PSR sort gate)” value is listed as “high polyreactivity”.

In the case of “QVQLVESGGRLVQAGGRLRLSCAASGNIFYGYAMGWYRQAPGKERELVARINWSGSRTYYADTVKGRFTISRDNAKNTVYLQMNSLNPEDTAVYYCNTSTSRVPGNGDYWGQGTQVTVSS”, the “polyreactivity (PSR sort gate)” value is listed as “high polyreactivity”.

In the case of “QVQLVESGGRLVQAGGSHRLSCAASGFIFYDYAMGWYIQAPGKERELVAVITRGGSTYYADSVKGRFTISRDNAKNTVYLLMNSLKPEDTAVYYCAAYWFTPGFTFDYWGQGTQVTVSS”, the “polyreactivity (PSR sort gate)” value is recorded as “low polyreactivity”.

“QVQLVESGGRLVQAGGSHRLSCAASGRTFNVYAMGWYRQAPGKERELVASISSSDTTNYADSVKGRFTISRDNAKNTVYLQMNSLKPEDTAVYYCAADYTPDLLSKVDYCGQGTQVTVSS”: the “polyreactivity (PSR sort gate)” value was “low polyreactivity”.

Turning to “QVQLVESGGRLVQAGGSHRLSCAASGRTFVENAMGWYRQAPGQEREFVAAISSSGDSTYYADSVKGRFTISRDNEKYTVYLKMNSLNPEDTAVYYCAARVYSRGLFYWGEGTQVTVSS”, the “polyreactivity (PSR sort gate)” value is given as “low polyreactivity”.

For “QVQLVESGGRLVQAGGSIRLSCAASGRIFTDNAMGWYRQAPGKERELVAAISWDGSSTSYADSVKGRFTISRDNAKNTVYLQMNSLQPEDTAVYYCAASGVGTNHYGYWNESDYWGQGTQVTVSS”, the “polyreactivity (PSR sort gate)” value was “low polyreactivity”.

For “QVQLVESGGRLVQAGGSIRLSCAASGRTFYNNAMGWYRQAPGKERELVAAISSGGSTYYADSVKGRFTISRDNAKNTVYLQMNSLKPEDTAVYYCNVRRGGWGYRYYYWGQGNQVTVSS”, the “polyreactivity (PSR sort gate)” value is “high polyreactivity”.

For “QVQLVESGGRLVQAGGSLLLSCAASGRIFRLYAMGWNTQAPGKERQLVASISSTGRTNYADSVKGRFTISRDNAKNTVYLQMNCLKPEDTAVYYCNAAVIYRYSQWDYGYWGLGTQVTVSS”, the “polyreactivity (PSR sort gate)” value is reported as “high polyreactivity”.

Take “QVQLVESGGRLVQAGGSLLLSCAASGSTIGYYDMGWYRQAPGKERELVASITKSGGTTRYADSVKGRFTISRDNAKNTVYLQMNSLKPEDTAVYYCNADRSLLYSRKIEYDYWGQGTQVTVRS”: the “polyreactivity (PSR sort gate)” value was “low polyreactivity”.

In the case of “QVQLVESGGRLVQAGGSLRISCAASGRTFRYYAKGWYRQAPGKERELVAAISSRGTRTYYADSVKGRFTISRDNAKNTGYLQMNSLKPEDTAVYYCATRYYQELAYDFWGQGTQVIVSS”, the “polyreactivity (PSR sort gate)” value is “high polyreactivity”.
